From patent US20180085469A1

Experiments:
[1] = target: CD22 (human) (UniProt P20273); experiment: flow cytometry, Raji cells, FITC goat anti-human IgG detection
[2] = target: CD22 (human) (UniProt P20273); experiment: flow cytometry, 697 cells, FITC goat anti-human IgG detection
[3] = target: CD22 (human) (UniProt P20273); experiment: flow cytometry, Jeko-1 cells, FITC goat anti-human IgG detection
[4] = target: CD22 (human) (UniProt P20273); experiment: flow cytometry, RS4;11 cells, FITC goat anti-human IgG detection
[5] = target: CD22 (human) (UniProt P20273); experiment: flow cytometry, REH cells, FITC goat anti-human IgG detection
[6] = target: CD22 (human) (UniProt P20273); experiment: flow cytometry, Ramos cells, FITC goat anti-human IgG detection
[7] = target: CD22 (human) (UniProt P20273); experiment: flow cytometry, Daudi cells, FITC goat anti-human IgG detection
[8] = target: CD22 (human) (UniProt P20273); experiment: flow cytometry, WSU-FSCCL cells, FITC goat anti-human IgG detection
[9] = target: CD22 (human) (UniProt P20273); experiment: flow cytometry, MN-60 cells, FITC goat anti-human IgG detection
[10] = target: Human trophoblast cell-surface antigen (TROP-2) (human) (UniProt P09758); experiment: flow cytometry, surface, NCI-N87 cells
[11] = target: Human trophoblast cell-surface antigen (TROP-2) (human) (UniProt P09758); experiment: flow cytometry, surface, Capan-1 cells
[12] = target: CD74 (invariant chain, Ii) (human) (UniProt P04233); experiment: flow cytometry, surface, Raji cells, GAH-FITC detection
[13] = target: CD74 (invariant chain, Ii) (human) (UniProt P04233); experiment: flow cytometry, surface, Raji cells; ratio to background (GAH-FITC only)
[14] = target: CD74 (invariant chain, Ii) (human) (UniProt P04233); experiment: flow cytometry, surface, Capan-1 cells, GAH-FITC detection
[15] = target: CD74 (invariant chain, Ii) (human) (UniProt P04233); experiment: flow cytometry, surface, A-375 cells; ratio to background (GAH-FITC only)
[16] = target: CD74 (invariant chain, Ii) (human) (UniProt P04233); experiment: flow cytometry, surface, Hep-G2 cells, GAH-FITC detection
[17] = target: CD74 (invariant chain, Ii) (human) (UniProt P04233); experiment: cell binding assay on antigen-positive cells
[18] = target: CD74 (invariant chain, Ii) (human) (UniProt P04233); experiment: flow cytometry, surface and cytoplasmic (permeabilized), HuH-7 cells; ratio to background
[19] = target: CD74 (invariant chain, Ii) (human) (UniProt P04233); experiment: flow cytometry, surface, HuH-7 cells; ratio to background (GAH-FITC only)
[20] = target: CD74 (invariant chain, Ii) (human) (UniProt P04233); experiment: flow cytometry, surface and cytoplasmic (permeabilized), NCI-N87 cells
[21] = target: CD74 (invariant chain, Ii) (human) (UniProt P04233); experiment: flow cytometry, surface, NCI-N87 cells, GAH-FITC detection
[22] = target: CD74 (invariant chain, Ii) (human) (UniProt P04233); experiment: flow cytometry, surface, Capan-1 cells; ratio to background (GAH-FITC only)
[23] = target: CD74 (invariant chain, Ii) (human) (UniProt P04233); experiment: flow cytometry, surface and cytoplasmic (permeabilized), A-375 cells; ratio to background
[24] = target: CD74 (invariant chain, Ii) (human) (UniProt P04233); experiment: flow cytometry, surface and cytoplasmic (permeabilized), Hep-G2 cells
[25] = target: CD74 (invariant chain, Ii) (human) (UniProt P04233); experiment: flow cytometry, surface and cytoplasmic (permeabilized), Hep-G2 cells; ratio to background
[26] = target: CD74 (invariant chain, Ii) (human) (UniProt P04233); experiment: flow cytometry, surface and cytoplasmic (permeabilized), Hs746T cells; ratio to background
[27] = target: CD74 (invariant chain, Ii) (human) (UniProt P04233); experiment: flow cytometry, surface, Hep-G2 cells; ratio to background (GAH-FITC only)
[28] = target: CD74 (invariant chain, Ii) (human) (UniProt P04233); experiment: flow cytometry, surface and cytoplasmic (permeabilized), Hs746T cells
[29] = target: CD74 (invariant chain, Ii) (human) (UniProt P04233); experiment: flow cytometry, surface, HuH-7 cells, GAH-FITC detection
[30] = target: CD74 (invariant chain, Ii) (human) (UniProt P04233); experiment: flow cytometry, surface and cytoplasmic (permeabilized), A-375 cells
[31] = target: CD74 (invariant chain, Ii) (human) (UniProt P04233); experiment: flow cytometry, surface and cytoplasmic (permeabilized), NCI-N87 cells; ratio to background
[32] = target: CD74 (invariant chain, Ii) (human) (UniProt P04233); experiment: flow cytometry, surface and cytoplasmic (permeabilized), Capan-1 cells
[33] = target: CD74 (invariant chain, Ii) (human) (UniProt P04233); experiment: flow cytometry, surface, NCI-N87 cells; ratio to background (GAH-FITC only)
[34] = target: CD74 (invariant chain, Ii) (human) (UniProt P04233); experiment: flow cytometry, surface, Hs746T cells, GAH-FITC detection
[35] = target: CD74 (invariant chain, Ii) (human) (UniProt P04233); experiment: flow cytometry, surface and cytoplasmic (permeabilized), Capan-1 cells; ratio to background
[36] = target: CD74 (invariant chain, Ii) (human) (UniProt P04233); experiment: flow cytometry, surface, Hs746T cells; ratio to background (GAH-FITC only)
[37] = target: CD74 (invariant chain, Ii) (human) (UniProt P04233); experiment: flow cytometry, surface and cytoplasmic (permeabilized), Raji cells; ratio to background
[38] = target: CD74 (invariant chain, Ii) (human) (UniProt P04233); experiment: flow cytometry, surface, A-375 cells, GAH-FITC detection
[39] = target: CD74 (invariant chain, Ii) (human) (UniProt P04233); experiment: flow cytometry, surface and cytoplasmic (permeabilized), Raji cells
[40] = target: CD74 (invariant chain, Ii) (human) (UniProt P04233); experiment: flow cytometry, surface and cytoplasmic (permeabilized), HuH-7 cells
[41] = target: T1, CD20 (human) (UniProt P11836); experiment: flow cytometry, Raji cells, FITC goat anti-human IgG detection
T1 sequence (looked up): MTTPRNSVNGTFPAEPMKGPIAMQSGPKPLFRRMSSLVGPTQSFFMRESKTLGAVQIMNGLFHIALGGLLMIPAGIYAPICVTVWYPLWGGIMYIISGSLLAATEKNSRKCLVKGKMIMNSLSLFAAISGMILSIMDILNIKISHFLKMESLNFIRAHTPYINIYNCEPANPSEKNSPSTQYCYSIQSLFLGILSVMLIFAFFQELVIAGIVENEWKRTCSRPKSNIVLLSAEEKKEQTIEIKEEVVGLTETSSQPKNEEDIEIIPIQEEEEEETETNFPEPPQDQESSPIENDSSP

[42] = target: T1, CD20 (human); experiment: flow cytometry, 697 cells, FITC goat anti-human IgG detection
[43] = target: T1, CD20 (human); experiment: flow cytometry, Jeko-1 cells, FITC goat anti-human IgG detection
[44] = target: T1, CD20 (human); experiment: flow cytometry, RS4;11 cells, FITC goat anti-human IgG detection (background 4.1)
[45] = target: T1, CD20 (human); experiment: flow cytometry, REH cells, FITC goat anti-human IgG detection
[46] = target: T1, CD20 (human); experiment: flow cytometry, Ramos cells, FITC goat anti-human IgG detection
[47] = target: T1, CD20 (human); experiment: flow cytometry, Daudi cells, FITC goat anti-human IgG detection
[48] = target: T1, CD20 (human); experiment: flow cytometry, WSU-FSCCL cells, FITC goat anti-human IgG detection
[49] = target: T1, CD20 (human); experiment: flow cytometry, MN-60 cells, FITC goat anti-human IgG detection
[50] = target: CEACAM6 (human) (UniProt P40199); experiment: flow cytometry, surface, HuH-7 cells
[51] = target: CEACAM6 (human) (UniProt P40199); experiment: flow cytometry, surface, NCI-N87 cells
[52] = target: CEACAM6 (human) (UniProt P40199); experiment: flow cytometry, surface, Hep-G2 cells

Chain of CEACAM6 (human) (P40199 35-320): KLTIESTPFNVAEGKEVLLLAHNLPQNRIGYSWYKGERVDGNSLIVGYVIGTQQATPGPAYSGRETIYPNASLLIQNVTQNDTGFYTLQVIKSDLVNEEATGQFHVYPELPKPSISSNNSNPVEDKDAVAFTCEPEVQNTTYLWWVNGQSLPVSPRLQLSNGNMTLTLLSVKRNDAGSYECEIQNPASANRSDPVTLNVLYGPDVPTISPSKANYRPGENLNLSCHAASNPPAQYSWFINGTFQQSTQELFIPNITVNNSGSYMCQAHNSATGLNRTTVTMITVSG
Chain of CD74 (invariant chain, Ii) (human) (P04233 whole entry, change not shown): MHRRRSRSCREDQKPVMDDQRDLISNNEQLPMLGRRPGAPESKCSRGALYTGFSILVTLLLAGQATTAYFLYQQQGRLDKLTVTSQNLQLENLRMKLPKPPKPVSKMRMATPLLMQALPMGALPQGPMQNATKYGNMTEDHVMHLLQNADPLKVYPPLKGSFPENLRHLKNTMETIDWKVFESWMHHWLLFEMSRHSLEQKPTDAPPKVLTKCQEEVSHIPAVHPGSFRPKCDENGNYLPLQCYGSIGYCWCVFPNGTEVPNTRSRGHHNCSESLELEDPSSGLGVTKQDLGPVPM
Chain of Human trophoblast cell-surface antigen (TROP-2) (human) (P09758 27-323): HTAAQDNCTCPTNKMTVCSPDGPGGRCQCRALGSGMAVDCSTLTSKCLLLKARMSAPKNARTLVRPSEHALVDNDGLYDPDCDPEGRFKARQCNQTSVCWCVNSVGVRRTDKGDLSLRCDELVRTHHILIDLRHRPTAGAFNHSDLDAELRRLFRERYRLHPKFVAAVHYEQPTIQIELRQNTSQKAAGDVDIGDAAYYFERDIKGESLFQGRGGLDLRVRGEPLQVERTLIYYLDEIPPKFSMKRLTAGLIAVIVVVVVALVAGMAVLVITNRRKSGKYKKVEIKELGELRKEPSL

With “epratuzumab (hLL2), humanized anti-CD22 IgG1 (antibody)” the Median fluorescence [1] was 45.9, the Median fluorescence [2] was 16 and the Median fluorescence [3] was 11.2. The Median fluorescence [4] was 23.3, the Median fluorescence [5] was 22.9 and the Median fluorescence [6] was 40.8. It also gave a Median fluorescence [7] of 145, a Median fluorescence [8] of 7.7 and a Median fluorescence [9] of 10.3.

Work on “humanized RS7 IgG (hRS7), anti-TROP-2 humanized antibody” yielded an MFI [10] of 795 and an MFI [11] of 237.

“milatuzumab (hLL1), humanized anti-CD74 antibody” was tested, and the MFI [12] was 59, the MFI Ratio hLL1:bkgd [13] was 19.6 and the MFI [14] was 22. The MFI Ratio hLL1:bkgd [15] was 5.3, the MFI [16] was 9 and the Kd [17] was 770 pM. It also gave an MFI Ratio hLL1:bkgd [18] of 28.5, an MFI Ratio hLL1:bkgd [19] of 1.6 and an MFI [20] of 220. For the same molecule, the MFI [21] was 5, the MFI Ratio hLL1:bkgd [22] was 1.8 and the MFI Ratio hLL1:bkgd [23] was 30.8. For the same molecule, the MFI [24] was 156, the MFI Ratio hLL1:bkgd [25] was 31.2 and the MFI Ratio hLL1:bkgd [26] was 28.8. It also gave an MFI Ratio hLL1:bkgd [27] of 1.5, an MFI [28] of 144 and an MFI [29] of 8. The MFI [30] was 185, the MFI Ratio hLL1:bkgd [31] was 36.7 and the MFI [32] was 248. It also gave an MFI Ratio hLL1:bkgd [33] of 1.3, an MFI [34] of 17 and an MFI Ratio hLL1:bkgd [35] of 49.6. It also gave an MFI Ratio hLL1:bkgd [36] of 2.1, an MFI Ratio hLL1:bkgd [37] of 28.6 and an MFI [38] of 16. It also gave an MFI [39] of 143 and an MFI [40] of 114.

B1: veltuzumab (hA20), humanized anti-CD20 IgG1 (antibody, from a related filing, V domains shown, part only)
VH: QVQLQQSGAEVKKPGSSVKVSCKASGYTFTSYNMHWVKQAPGQGLEWIGAIYPGNGDTSYNQKFKGKATLTADESTNTAYMELSSLRSEDTAFYYCARSTYYGGDWYFDVWGQGTTVTVSS
VL: DIQLTQSPSSLSASVGDRVTMTCRASSSVSYIHWFQQKPGKAPKPWIYATSNLASGVPVRFSGSGSGTDYTFTISSLQPEDIATYYCQQWTSNPPTFGGGTKLEIK
With B1 the Median fluorescence [41] was 422, the Median fluorescence [42] was 6.9 and the Median fluorescence [43] was 605. The Median fluorescence [44] was 3.7, the Median fluorescence [45] was 12.3 and the Median fluorescence [46] was 620. For the same molecule, the Median fluorescence [47] was 815, the Median fluorescence [48] was 97.4 and the Median fluorescence [49] was 21.5.

B2: hMN-15, humanized anti-CEACAM6 antibody (antibody, from a related filing, IgG1, V domains shown)
VH: QVQLVESGGGVVQPGRSLRLSCSSSGFALTDYYMSWVRQAPGKGLEWLGFIANKANGHTTDYSPSVKGRFTISRDNSKNTLFLQMDSLRPEDTGVYFCARDMGIRWNFDVWGQGTPVTVSS
VL: DIQLTQSPSSLSASVGDRVTMTCSASSRVSYIHWYQQKPGKAPKRWIYGTSTLASGVPARFSGSGSGTDFTFTISSLQPEDIATYYCQQWSYNPPTFGQGTKVEIKR
For B2, the MFI [50] was 81, the MFI [51] was 1120 and the MFI [52] was 175.
